Ends that are not written are not given here.
B1: LRRC4B (482-576): LRRC4B ectodomain fragment, amino acids 482-576 of SEQ ID NO: 2 (protein)
chain: GGYTYFTTVTVETLETQPGEEALQPRGTEKEPPGPTTDGVWGGGRPGDAAGPASSSTTAPAPRSSRPTEKAFTVPITDVTENALKDLDDVMKTTK

Legend:
[1] = target: binding of FAM19A5 protein to full-length ectodomain of the LRRC4B protein (amino acids 36-576 of SEQ ID NO: 2) (Homo sapiens, UniProt Q7Z5A7); assay: Competitive inhibition assay, plate coated with full-length ectodomain of LRRC4B (amino acids 36-576); details: for inhibition of interaction between FAM19A5 and the coated LRRC4B protein fragments (in words): statement covers both coats, LRRC4B (36-576) and LRRC4B (453-576); for inhibition of FAM19A5 binding to coated full-length LRRC4B ectodomain protein (in words): increasing concentrations, FAM19A5 5 ng/mL, 100 nM coat
Sequence of binding of FAM19A5 protein to full-length ectodomain of the LRRC4B protein (amino acids 36-576 of SEQ ID NO: 2) (Q7Z5A7 44-132): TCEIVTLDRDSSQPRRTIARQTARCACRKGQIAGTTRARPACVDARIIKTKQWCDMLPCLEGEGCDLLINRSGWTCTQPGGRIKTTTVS
Protocol: Next, to further assess the role that the binding domain of the LRRC4B protein has on the interaction between FAM19A5 protein and members of the LRRC4 protein family, a competitive inhibition assay was used to determine whether different LRRC4B deletion constructs from Example 2 could inhibit the binding of FAM19A5 to the full-length ectodomain of the LRRC4B protein (i.e., amino acids 36-576 of SEQ ID NO: 2; SEQ ID NO: 5). Briefly, 100 nM of the full-length ectodomain of the LRRC4B protein was used to coat a plate, and then recombinant FAM19A5 protein (5 ng/mL) was added to the plate in combination with the following LRRC4B deletion constructs (increasing concentrations): (1) LRRC4B (453-576) (i.e., construct #11 in Table 6); (2) LRRC4B (453-576) mutant (comprises alanine substitutions at positions 488 and 489 of SEQ ID NO: 2; SEQ ID NO: 16); (3) LRRC4B (484-576) (i.e., construct #12 in Table 6); (4) LRRC4B (482-576); (5) LRRC4B (482-497); and (6) LRRC4B (498-576). The plates were incubated at 37° C., and then, the amount of FAM19A5 bound to the coated LRRC4B ectodomain protein was measured using HRP-conjugated anti-FAM19A5 (1-65) antibody.
As described in Example 3, there appeared to be much similarity in the binding domains of the different members of the LRRC4 family. […] Then, recombinant FAM19A5 protein (5 ng/mL) was added in combination with one of the following: (i) LRRC4B (484-576) protein fragment, (ii) LRRC4B (453-576, AA) protein fragment, and (iii) synthetic FB-20 peptide. The plates were incubated at 37° C., and then, the amount of FAM19A5 protein bound to the coated LRRC4, LRRC4B, or LRRC4C proteins was measured using anti-FAM19A5 (1-65) antibody.
(§1) Next, to assess whether polypeptides comprising the binding domains of LRRC4 or LRRC4C proteins can have similar inhibitory effects on LRRC4B protein binding, the following synthetic peptides were constructed: (1) FBC4-23 (contains the binding domain of the LRRC4 protein, i.e., YSFFTTVTVETTE); and (2) FBC4C-23 (contains the binding domain of the LRRC4C protein, i.e., FSYFSTVTVETME). Then, the ability of the peptides to inhibit the binding of LRRC4 protein family members to FAM19A5 protein was assessed using a competitive inhibition assay. Briefly, plates were coated with 100 nM of either LRRC4B protein fragment #1 (amino acids 36-576 of SEQ ID NO: 2; SEQ ID NO: 5) or LRRC4B protein fragment #2 (amino acids 453-576 of SEQ ID NO: 2; SEQ ID NO: 7). Then, recombinant FAM19A5 protein (5 ng/ml for plates coated with LRRC4B fragment #1; and 1 ng/mL for plates coated with LRRC4B fragment #2) was added to the plates in combination with 20 nM of the FBC4-23, FBC4C-23, and FB-20 peptides. The plates were incubated at 37° C. and then, the amount of FAM19A5 protein bound to the coated LRRC4B protein fragments was assessed using HRP-conjugated anti-FAM19A5 (1-65) antibody.
Next, to determine the minimal sequence required to inhibit the interaction of FAM19A5 and members of the LRRC4 protein family, ten FB-20 peptide variants were constructed by serially deleting one or more amino acids from the N-terminus or C-terminus of the FB-20 peptide. Then, a competitive inhibition assay was used to assess the ability of the different FB-20 peptide variants to inhibit the interaction between FAM19A5 and LRRC4B protein. Again, plates were coated with 100 nM of either LRRC4B protein fragment #1 (amino acids 36-576 of SEQ ID NO: 2; SEQ ID NO: 5) or LRRC4B protein fragment #2 (amino acids 453-576 of SEQ ID NO: 2; SEQ ID NO: 7). Then, recombinant FAM19A5 protein (5 ng/ml for plates coated with LRRC4B fragment #1; and 1 ng/mL for plates coated with LRRC4B fragment #2) was added to the plates in combination with 20 nM of the different peptides described above. After incubating the plates at 37° C., the amount of FAM19A5 protein bound to the coated LRRC4B protein fragments was assessed using HRP-conjugated anti-FAM19A5 (1-65) antibody. […]

[2] = target: binding of FAM19A5 protein to LRRC4B (amino acids 453-576)-hFc (Homo sapiens, UniProt Q7Z5A7); assay: Competitive inhibition assay, plate coated with LRRC4B (amino acids 453-576)-hFc, peptides at 20 nM
Sequence of binding of FAM19A5 protein to LRRC4B (amino acids 453-576)-hFc (Q7Z5A7 44-132): as above
Source text: as §1
Next, to determine the minimal sequence required to inhibit the interaction of FAM19A5 and members of the LRRC4 protein family, ten FB-20 peptide variants were constructed by serially deleting one or more amino acids from the N-terminus or C-terminus of the FB-20 peptide. Then, a competitive inhibition assay was used to assess the ability of the different FB-20 peptide variants to inhibit the interaction between FAM19A5 and LRRC4B protein. Again, plates were coated with 100 nM of either LRRC4B protein fragment #1 (amino acids 36-576 of SEQ ID NO: 2; SEQ ID NO: 5) or LRRC4B protein fragment #2 (amino acids 453-576 of SEQ ID NO: 2; SEQ ID NO: 7). Then, recombinant FAM19A5 protein (5 ng/ml for plates coated with LRRC4B fragment #1; and 1 ng/mL for plates coated with LRRC4B fragment #2) was added to the plates in combination with 20 nM of the different peptides described above. After incubating the plates at 37° C., the amount of FAM19A5 protein bound to the coated LRRC4B protein fragments was assessed using HRP-conjugated anti-FAM19A5 (1-65) antibody.
To identify the critical amino acid residues, multiple FB-20 peptide mutants were constructed, in which the individual residues of the core binding domain (i.e., YTYFTTVTVETLE; SEQ ID NO: 15) were substituted with alanine (A) or asparagine (N). Then, the ability of these FB-20 peptide mutants to inhibit the interaction between LRRC4B and FAM19A5 proteins was assessed, as described in Examples 3 and 4.

[3] = Table 10, alanine/asparagine mutants
[4] = Table 9, deletion variants, 20 nM peptide, FAM19A5 5 ng/ml
[5] = Table 9, deletion variants, 20 nM peptide, FAM19A5 1 ng/mL

Molecule	Inhibition rate (%) LRRC4B (amino acids 36-576)-hFc [1, 3] [%]	Inhibition rate (%) LRRC4B (amino acids 453-576)-hFc [2, 3] [%]	inhibition of interaction between FAM19A5 and the coated LRRC4B protein fragments (in words) ([1]; 20 nM peptide)	Inhibition rate (%) LRRC4B (amino acids 36-576)-hFc [1, 4] [%]	Inhibition rate (%) LRRC4B (amino acids 453-576)-hFc [2, 5] [%]	inhibition of FAM19A5 binding to coated full-length LRRC4B ectodomain protein (in words) [1]
GATYFTTVTVETLETQPGEE [FB-20[A1]]	17.2	3.6	–	–	–	–
GNTYFTTVTVETLETQPGEE [FB-20[N1]]	11.9	3.1	–	–	–	–
GYAYFTTVTVETLETQPGEE [FB-20[A2]]	1.0	−0.4	–	–	–	–
GYNYFTTVTVETLETQPGEE [FB-20[N2]]	−0.7	−2.0	–	–	–	–
GYTAFTTVTVETLETQPGEE [FB-20[A3]]	5.9	0.0	–	–	–	–
GYTNFTTVTVETLETQPGEE [FB-20[N3]]	−5.0	4.0	–	–	–	–
GYTYATTVTVETLETQPGEE [FB-20[A4]]	2.7	1.5	–	–	–	–
GYTYFATVTVETLETQPGEE [FB-20[A5]]	53.4	22.2	–	–	–	–
GYTYFNTVTVETLETQPGEE [FB-20[N5]]	56.1	30.5	–	–	–	–
GYTYFTAVTVETLETQPGEE [FB-20[A6]]	17.9	11.0	–	–	–	–
GYTYFTNVTVETLETQPGEE [FB-20[N6]]	−11.4	−0.4	–	–	–	–
GYTYFTTATVETLETQPGEE [FB-20[A7]]	26.8	7.9	–	–	–	–
GYTYFTTNTVETLETQPGEE [FB-20[N7]]	24.5	8.3	–	–	–	–
GYTYFTTVAVETLETQPGEE [FB-20[A8]]	3.9	−0.4	–	–	–	–
GYTYFTTVNVETLETQPGEE [FB-20[N8]]	2.9	−2.4	–	–	–	–
GYTYFTTVTAETLETQPGEE [FB-20[A9]]	21.5	3.8	–	–	–	–

Molecule	Inhibition rate (%) LRRC4B (amino acids 36-576)-hFc [1, 3] [%]	Inhibition rate (%) LRRC4B (amino acids 453-576)-hFc [2, 3] [%]	inhibition of interaction between FAM19A5 and the coated LRRC4B protein fragments (in words) ([1]; 20 nM peptide)	Inhibition rate (%) LRRC4B (amino acids 36-576)-hFc [1, 4] [%]	Inhibition rate (%) LRRC4B (amino acids 453-576)-hFc [2, 5] [%]	inhibition of FAM19A5 binding to coated full-length LRRC4B ectodomain protein (in words) [1]
GYTYFTTVTNETLETQPGEE [FB-20[N9]]	17.5	6.5	–	–	–	–
GYTYFTTVTVATLETQPGEE [FB-20[A10]]	19.6	6.4	–	–	–	–
GYTYFTTVTVEALETQPGEE [FB-20[A11]]	73.4	50.3	–	–	–	–
GYTYFTTVTVENLETQPGEE [FB-20[N11]]	74.1	55.6	–	–	–	–
GYTYFTTVTVETAETQPGEE [FB-20[A12]]	73.0	56.2	–	–	–	–
GYTYFTTVTVETLATQPGEE [FB-20[A13]]	51.4	27.2	–	–	–	–
GYTYFTTVTVNTLETQPGEE [FB-20[N10]]	27.0	10.8	–	–	–	–
GYTYNTTVTVETLETQPGEE [FB-20[N4]]	−1.3	2.5	–	–	–	–
KNFTTVTVETNKETQ [FB-m8dN]	–	–	failed to significantly inhibit	3.3	−1.1	–
KNTTVTVETNKETQ [FB-m7dN]	–	–	failed to significantly inhibit	2.0	−1.8	–
KNTYFTTVTVETNKETQ [FB-m10dN]	–	–	failed to significantly inhibit	7.7	0.0	–
KNYFTTVTVETNKETQ [FB-m9dN]	–	–	failed to significantly inhibit	2.5	−1.6	–
KNYTYFTTNKETQ [FB-m6dC]	–	–	failed to significantly inhibit	14.9	5.5	–
KNYTYFTTVNKETQ [FB-m7dC]	–	–	failed to significantly inhibit	4.4	0.4	–
LRRC4B (482-497): LRRC4B ectodomain fragment, amino acids 482-497 of SEQ ID NO: 2 (GGYTYFTTVTVETLET; also: dimerising Fc or GST fusion left off)	–	–	–	–	–	also able to inhibit the interaction
B1	–	–	–	–	–	also able to inhibit the interaction

Source: US20240238445A1, “INHIBITORS AND USES THEREOF” (NEURACLE SCIENCE CO., LTD., priority 2021, published 2024)
